The target of this test is T1, human folate receptor β (human, UniProt P14207 17-230).
T1 construct: whole, on cells; also called FRβ; FR-β
The experiment in a line: flow cytometry on human FRβ-expressing B300-19 cells. Background: Flow cytometry measures light scatter and fluorescence of single cells or particles in a stream.

The values that follow come from patent US20150343088A1 (KAGOSHIMA UNIVERSITY, published 2015).

T1 sequence (P14207 17-230): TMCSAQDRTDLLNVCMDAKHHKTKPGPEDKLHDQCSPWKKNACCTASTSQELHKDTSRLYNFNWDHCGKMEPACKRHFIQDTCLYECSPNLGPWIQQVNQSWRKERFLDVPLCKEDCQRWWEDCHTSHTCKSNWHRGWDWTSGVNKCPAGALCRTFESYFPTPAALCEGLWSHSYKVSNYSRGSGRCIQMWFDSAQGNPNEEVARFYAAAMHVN
Experimental: The cells were further reacted with an anti-rat antibody labeled with APC. After the end of reaction, stainability was determined using a flow cytometer.

B1: anti-human FRα/β rat monoclonal antibody (clone name: No. 5) (antibody, V domains shown)
VH: QVQLKESGPGLVQPSQTLSLTCTVSGFSLTSNSVSWVRQPPGKGLEWMGAIWSGGSTDYNSALKSRLSISKDTSKSQVFLKMNSLQTEDTAIYFCTRYYGYTYFAYWGQGVMVTVSS
VL: DIQMTQSPASLSASLEEIVTITCQASQDIGNWLAWYQQKPGKSPQLLIYDAIRLADGVPSRFSGSRSGTQYSLKISRLQVEDIGDYYCQQGQSNPRTFGGGTKLELK
notes: also called antibody No. 5; anti-human FRα/β antibody
With B1, the binding result was “binds”.
